Patent US6379959

Target: T1, carboxypeptidase A
T1 sequence (P00730 111-419, species assumed, looked up): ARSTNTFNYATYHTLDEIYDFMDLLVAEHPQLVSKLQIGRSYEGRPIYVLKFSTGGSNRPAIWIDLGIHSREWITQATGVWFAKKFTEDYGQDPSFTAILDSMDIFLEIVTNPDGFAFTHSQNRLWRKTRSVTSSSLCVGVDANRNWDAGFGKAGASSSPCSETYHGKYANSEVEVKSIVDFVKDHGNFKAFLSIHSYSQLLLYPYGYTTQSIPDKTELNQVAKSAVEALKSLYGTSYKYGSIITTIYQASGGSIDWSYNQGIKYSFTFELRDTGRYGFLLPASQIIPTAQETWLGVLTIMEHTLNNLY
Experiment: carboxypeptidase inhibition (Ki); reference wild PCI

decrease of the inhibitory capacity against the wild form (orders of magnitude): 3
Binder: EQHADPICNKPCKTHDDCSGAWFCQACWNSARTCGP [PCIdelY37V38G39]
